From IntAct's records for PubMed 11713520

B1: Auxin-responsive protein IAA17 (Arabidopsis thaliana (Mouse-ear cress)), P93830 (parent)
chain: MMGSVELNLRETELCLGLPGGDTVAPVTGNKRGFSETVDLKLNLNNEPANKEGSTTHDVVTFDSKEKSACPKDPAKPPAKAQVVGWPPVRSYRKNVMVSCQKSSGGPEAAAFVKVSMDGAPYLRKIDLRMYKSYDELSNALSNMFSSFTMGKHGGEEGMIDFMNERKLMDLVNSWDYVPSYEDKDGDWMLVGDVPWPMFVDTCKRLRLMKGSDAIGLAPRAMEKCKSRA
partner: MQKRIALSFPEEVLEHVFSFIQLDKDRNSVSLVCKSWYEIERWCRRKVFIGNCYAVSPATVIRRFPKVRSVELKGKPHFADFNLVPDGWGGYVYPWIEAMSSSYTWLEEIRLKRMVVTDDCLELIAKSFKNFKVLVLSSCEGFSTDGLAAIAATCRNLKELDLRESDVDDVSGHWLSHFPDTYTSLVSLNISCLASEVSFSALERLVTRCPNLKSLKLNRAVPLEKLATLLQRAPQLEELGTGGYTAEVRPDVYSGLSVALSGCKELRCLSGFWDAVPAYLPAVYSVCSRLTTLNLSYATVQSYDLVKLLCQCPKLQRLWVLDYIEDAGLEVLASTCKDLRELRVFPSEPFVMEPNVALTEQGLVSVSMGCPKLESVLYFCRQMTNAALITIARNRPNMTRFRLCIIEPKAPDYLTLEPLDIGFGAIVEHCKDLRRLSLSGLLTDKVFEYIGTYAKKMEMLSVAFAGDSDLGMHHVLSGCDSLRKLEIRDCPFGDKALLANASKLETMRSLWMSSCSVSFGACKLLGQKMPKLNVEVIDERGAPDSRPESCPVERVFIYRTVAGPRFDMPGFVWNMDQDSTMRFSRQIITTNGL

Variants of: B1
Details: with tir1_arath TIR1, Q570C0

effect of a mutation on the interaction	Variant
decreasing interaction	P88L
